Assay [1] addresses LRP6-mCherry, stably expressed in NCI-H1703 cells (human) (UniProt O75581). The assay can be described thus: dual-color axial line-scanning fluorescence cross-correlation spectroscopy (axial lsFCS); two receptors in the plasma membrane of live NCI-H1703 cells stably expressing LRP6-mCherry and transiently xKremen2-eGFP; fractions that co-diffuse from the ratios of cross- and autocorrelation amplitudes.

For assay [2], the target named is T1, LRP6-mCherry, stably expressed in NCI-H1703 cells (human, UniProt O75581 20-1613).
T1 construct: lipoprotein-receptor related protein 6 (LRP6), human; the ORF of the hLRP6-mCherry fusion inserted into pEF1a-IRES-Neo; Same fusion ORF as m4 and m5; receptor density 45 ± 23 per µm^2; also called hLRP6-mCherry; exogenous LRP6-mCherry; source: NCI-H1703, stably transfected clonal line (pEF1a-hLRP6-mCherry-IRES-Neo, G418 selection), on live cells; not shown: mCherry, C-terminal, kept
The assay can be described thus: dual-color axial line-scanning fluorescence cross-correlation spectroscopy (axial lsFCS); the same data as a3 (NCI-H1703 stably expressing LRP6-mCherry), analysed without prior background correction of the intensity time traces. The conditions noted are these: partners not purified.

In assay [3] the target is T2, LRP6-mCherry, transiently expressed in HEK293T cells (human, UniProt O75581 20-1613).
T2 construct: lipoprotein-receptor related protein 6 (LRP6), human; plasmid pCS2+hLRP6-mCherry (Dörlich et al., 2015); Receptor density 370 ± 150 or 1080 ± 470 per µm^2 in the two series; MesD was co-transfected; also called hLRP6-mCherry; lipoprotein-receptor related protein 6; source: HEK293T, transiently transfected (pCS2+hLRP6-mCherry, with MesD 1:6), on live cells; not shown: mCherry, C-terminal, kept
Kind of assay: dual-color axial line-scanning fluorescence cross-correlation spectroscopy (axial lsFCS); live HEK293T cells transiently expressing the receptor, ligand in conditioned medium at varied concentrations (0.01-220 nM), 37°C, 5% CO2, 60 s scans, fit of Γ(CL) with Equation 5. The conditions noted are these: partners not purified.

For assay [4], the target named is T3, endogenously tagged LRP6-mCherry in CRISPR/Cas9 edited NCI-H1703 cells (human (endogenous in NCI-H1703), UniProt O75581 20-1613).
T3 construct: lipoprotein-receptor related protein 6 (LRP6), human, expressed from the endogenous locus of NCI-H1703 cells; Untagged LRP6 from the unedited allele is also present; receptor density 18 ± 9 per µm^2; source: NCI-H1703, CRISPR/Cas9 edited at the endogenous LRP6 locus (exon 23), heterozygous clone, on live cells
Kind of assay: dual-color axial line-scanning fluorescence cross-correlation spectroscopy (axial lsFCS); live CRISPR/Cas9 edited NCI-H1703 cells with endogenously tagged LRP6, ligand in conditioned medium at varied concentrations, 37°C, 5% CO2, 60 s scans, fit of Γ(CL) with Equation 5. The settings on record: partners not purified.

Assay [5] deals with T4, endogenously tagged LRP6-tdTomato in CRISPR/Cas9 edited NCI-H1703 cells (human (endogenous in NCI-H1703), UniProt O75581 20-1613).
T4 construct: lipoprotein-receptor related protein 6 (LRP6), human, expressed from the endogenous locus of NCI-H1703 cells; Untagged LRP6 from the unedited allele is also present; receptor density 21 ± 15 per µm^2; source: NCI-H1703, CRISPR/Cas9 edited at the endogenous LRP6 locus (exon 23), heterozygous clone, on live cells; not shown: tdTomato (after the linker AS from the NheI site), C-terminal, kept
The assay is described as above. The conditions noted are these: partners not purified.

In assay [6] the target is T2, LRP6-mCherry, transiently expressed in …. The assay can be described thus: time-lapse spinning disk confocal imaging of ligand fluorescence on the cell membrane; dissociation after two washing steps, frames every 300 s for up to 3 hr, average of 50 cells; kon from a regression of apparent rate coefficients at 3.5 and 7 nM with this koff fixed; 37°C, 5% CO2. The conditions noted are these: partners not purified.

The target of assay [7] is T1, LRP6-mCherry, stably expressed in …. Kind of assay: dual-color axial line-scanning fluorescence cross-correlation spectroscopy (axial lsFCS); live NCI-H1703 cells stably expressing LRP6-mCherry, ligand in conditioned medium at varied concentrations, 37°C, 5% CO2, 60 s scans, with background and photobleaching correction, fit of Γ(CL) with Equation 5. The conditions noted are these: partners not purified.

Assay [8] addresses (Xenopus laevis) xKremen2-mCherry (Xenopus laevis). The assay can be described thus: dual-color axial line-scanning fluorescence cross-correlation spectroscopy (axial lsFCS); live NCI-H1703 cells transiently expressing the receptor (xKremen2-mCherry without or with unlabeled LRP6; apparent affinity with LRP6), ligand in conditioned medium at varied concentrations, 37°C, 5% CO2, 60 s scans, fit of Γ(CL) with Equation 5.

Assay [9] concerns the target xKremen2-mCherry co-expressed with unlabeled LRP6 (Xenopus laevis | human) (UniProt O75581). The assay is described as above.
In assay [10] the target is T5, LRP6-mCherry, transiently expressed in NCI-H1703 cells (human, UniProt O75581 20-1613).
T5 construct: lipoprotein-receptor related protein 6 (LRP6), human; plasmid pCS2+hLRP6-mCherry (Dörlich et al., 2015); Same construct as m4 in another cell line; receptor density 140 ± 80 per µm^2; also called hLRP6-mCherry; source: NCI-H1703, transiently transfected (pCS2+hLRP6-mCherry, with MesD 1:6), on live cells; not shown: mCherry, C-terminal, kept
Described as above. The settings on record: partners not purified.

The target in assay [11] is T6, LRP6-tdTomato, transiently expressed in NCI-H1703 cells (human, UniProt O75581 20-1613).
T6 construct: lipoprotein-receptor related protein 6 (LRP6), human; pCS2+hLRP6-tdTomato, made by replacing the mCherry ORF of pCS2+hLRP6-mCherry; Receptor density 106 ± 52 per µm^2; also called hLRP6-tdTomato; source: NCI-H1703, transiently transfected (pCS2+hLRP6-tdTomato, with MesD 1:6), on live cells; not shown: tdTomato, C-terminal, kept
The assay is described as above. The conditions noted are these: partners not purified.

The target of assay [12] is T2, LRP6-mCherry, transiently expressed in …. The assay can be described thus: time-lapse spinning disk confocal imaging of ligand fluorescence on the cell membrane; association: HEK293T cells expressing LRP6-mCherry, conditioned medium with DKK1-eGFP at different concentrations, 37°C, 5% CO2, frames every 100 s for 1 hr, linear regression of apparent rate coefficients; the authors call such measurements on individual cells highly unreliable. The conditions noted are these: partners not purified.

Assay [13] deals with T1, LRP6-mCherry, stably expressed in …. The assay can be described thus: dual-color axial line-scanning fluorescence cross-correlation spectroscopy (axial lsFCS); live NCI-H1703 cells stably expressing LRP6-mCherry, ligand in conditioned medium at varied concentrations, 37°C, 5% CO2, 60 s scans, with background and photobleaching correction, fit of Γ(CL) with Equation 5. The conditions noted are these: partners not purified. This is another data set of the same source.

T2 sequence (O75581 20-1613): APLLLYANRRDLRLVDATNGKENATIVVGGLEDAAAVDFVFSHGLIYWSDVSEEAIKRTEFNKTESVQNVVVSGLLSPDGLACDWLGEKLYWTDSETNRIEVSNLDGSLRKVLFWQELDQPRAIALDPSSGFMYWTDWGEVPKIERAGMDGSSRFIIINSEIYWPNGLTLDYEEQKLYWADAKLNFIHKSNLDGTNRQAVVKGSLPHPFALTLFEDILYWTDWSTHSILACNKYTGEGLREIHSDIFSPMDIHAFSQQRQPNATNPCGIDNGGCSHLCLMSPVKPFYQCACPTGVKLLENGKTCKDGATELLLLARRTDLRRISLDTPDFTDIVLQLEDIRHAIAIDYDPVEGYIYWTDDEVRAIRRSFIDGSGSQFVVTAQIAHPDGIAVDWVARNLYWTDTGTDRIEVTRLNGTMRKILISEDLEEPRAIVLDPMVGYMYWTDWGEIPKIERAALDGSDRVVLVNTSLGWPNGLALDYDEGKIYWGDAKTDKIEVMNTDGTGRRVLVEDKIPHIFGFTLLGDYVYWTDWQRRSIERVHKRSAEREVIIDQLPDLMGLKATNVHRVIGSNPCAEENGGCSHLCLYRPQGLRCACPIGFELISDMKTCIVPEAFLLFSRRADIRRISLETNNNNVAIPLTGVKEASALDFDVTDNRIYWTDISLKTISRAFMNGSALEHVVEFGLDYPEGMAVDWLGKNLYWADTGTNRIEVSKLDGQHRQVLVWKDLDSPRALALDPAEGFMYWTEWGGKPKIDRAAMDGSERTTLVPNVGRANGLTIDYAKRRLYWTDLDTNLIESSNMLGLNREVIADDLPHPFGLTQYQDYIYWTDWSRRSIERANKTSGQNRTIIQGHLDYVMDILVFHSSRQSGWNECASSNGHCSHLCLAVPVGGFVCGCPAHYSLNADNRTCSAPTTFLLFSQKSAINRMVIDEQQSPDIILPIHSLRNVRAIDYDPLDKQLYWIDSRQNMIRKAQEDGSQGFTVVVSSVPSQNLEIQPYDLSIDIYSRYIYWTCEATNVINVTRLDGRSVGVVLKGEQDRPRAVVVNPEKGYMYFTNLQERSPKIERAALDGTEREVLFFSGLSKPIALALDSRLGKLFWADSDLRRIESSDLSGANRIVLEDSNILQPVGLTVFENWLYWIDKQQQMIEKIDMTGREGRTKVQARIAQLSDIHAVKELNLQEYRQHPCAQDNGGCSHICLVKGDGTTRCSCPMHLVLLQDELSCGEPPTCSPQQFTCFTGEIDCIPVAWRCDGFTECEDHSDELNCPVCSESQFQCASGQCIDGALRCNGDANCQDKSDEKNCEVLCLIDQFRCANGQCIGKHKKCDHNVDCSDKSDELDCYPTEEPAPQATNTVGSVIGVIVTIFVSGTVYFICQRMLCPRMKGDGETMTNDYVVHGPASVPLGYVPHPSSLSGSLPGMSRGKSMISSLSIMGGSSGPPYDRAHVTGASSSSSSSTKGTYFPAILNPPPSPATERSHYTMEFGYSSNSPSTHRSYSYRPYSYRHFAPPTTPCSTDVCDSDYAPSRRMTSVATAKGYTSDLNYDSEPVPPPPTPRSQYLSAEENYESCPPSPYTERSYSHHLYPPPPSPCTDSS
T1 sequence (O75581 20-1613): as above
Sequence of LRP6-mCherry, stably expressed in NCI-H1703 cells (human) (O75581 20-1613): as above
T4 sequence (O75581 20-1613): as above
T6 sequence (O75581 20-1613): as above
T3 sequence (O75581 20-1613): as above
T5 sequence (O75581 20-1613): as above

With “(Xenopus laevis) xKremen2-eGFP (receptor)”, in [1], the bound fraction of LRP6 receptors FR, corrected assuming an eGFP maturation yield of 0.9 amounted to 0.26; the bound fraction of xKremen2 receptors FG, corrected assuming an mCherry maturation yield of 0.5 stood at 0.18; the percent of LRP6 receptors co-diffusing with xKremen2 amounted to 25%; the percent of xKremen2 receptors co-diffusing with LRP6 is 15%.

B1: human Dickkopf1 fused to eGFP (DKK1-eGFP) (ligand, UniProt O94907 32-266, looked up)
chain: TLNSVLNSNAIKNLPPPLGGAAGHPGSAVSAAPGILYPGGNKYQTIDNYQPYPCAEDEECGTDEYCASPTRGGDAGVQICLACRKRRKRCMRHAMCCPGNYCKNGICVSSDQNHFRGEIEETITESFGNDHSTLDGYSRRTTLSSKMYHTKGQEGSVCLRSSDCASGLCCARHFWSKICKPVLKEGQVCTKHRRKGSHGLEIFQRCYCGEGLSCRIQKDHHQASNSSRLHTCQRH
notes: Dickkopf1 (DKK1), human; also called hDKK1-eGFP
Regarding B1, the Kd was 0.1 ± 0.02 nM in [2]; 0.49 ± 0.09 nM in assay [3]; 0.09 ± 0.01 nM in assay [4]; 0.1 ± 0.02 nM in [5]; 0.4 ± 0.1 nM in [6]; 0.08 ± 0.01 nM in [7]. Besides, the Kd in [8] is 10.3 nM; in [9], 0.54 nM; in assay [10], 0.22 ± 0.02 nM; in [11], 0.22 ± 0.03 nM; in assay [12], 2.6 ± 0.1 nM. Also, the koff in assay [6] worked out at 0.00026 s⁻¹; in [12] it was 0.0013 s⁻¹. The kon in assay [6] worked out at 670000 M⁻¹ s⁻¹; in assay [12] it was 500000 M⁻¹ s⁻¹.

B2: human Dickkopf1 fused to eGFP and a SNAP-tag domain (DKK1-eGFP-SNAP) (ligand, UniProt O94907 32-266, looked up)
chain: TLNSVLNSNAIKNLPPPLGGAAGHPGSAVSAAPGILYPGGNKYQTIDNYQPYPCAEDEECGTDEYCASPTRGGDAGVQICLACRKRRKRCMRHAMCCPGNYCKNGICVSSDQNHFRGEIEETITESFGNDHSTLDGYSRRTTLSSKMYHTKGQEGSVCLRSSDCASGLCCARHFWSKICKPVLKEGQVCTKHRRKGSHGLEIFQRCYCGEGLSCRIQKDHHQASNSSRLHTCQRH
notes: Dickkopf1 (DKK1), human; made from pCS2+hDKK1-eGFP by adding a linker and the SNAP-tag gene; SNAP-tag domain is 19.4 kDa; also called hDKK1-eGFP-SNAP; source: conditioned medium
In turn, B2 came in with a Kd in [3] of 0.46 ± 0.09 nM.

B3: human Dickkopf2 fused to eGFP (DKK2-eGFP) (ligand, UniProt Q9UBU2 34-259, looked up)
chain: KLNSIKSSLGGETPGQAANRSAGMYQGLAFGGSKKGKNLGQAYPCSSDKECEVGRYCHSPHQGSSACMVCRRKKKRCHRDGMCCPSTRCNNGICIPVTESILTPHIPALDGTRHRDRNHGHYSNHDLGWQNLGRPHTKMSHIKGHEGDPCLRSSDCIEGFCCARHFWTKICKPVLHQGEVCTKQRKKGSHGLEIFQRCDCAKGLSCKVWKDATYSSKARLHVCQKI
notes: Dickkopf2 (DKK2), human; also called hDKK2-eGFP
In the case of B3, the Kd in assay [13] was 0.26 ± 0.04 nM.

Broadly, the koff is the rate constant with which the complex falls apart. A word on the kon: it is the second-order rate constant of association.

(Values after PMC7289602, “Measuring ligand-cell surface receptor affinities with axial line-scanning fluorescence correlation spectroscopy” (eLife, 2020).)
